The term stoichiometry N denotes a count of units in the complex or per binding partner.

We go through 2 substances from paper PMC2747663.

In assay [1] the target is full-length ERBB3 (pIND/TRE-based), recombinant and overexpressed in CHO cells (human) (UniProt P21860). Kind of assay: cross-linking.
Assay [2] deals with soluble extracellular domains (ECD) of ERBB3, V5 and His6 epitope-tagged (human) (UniProt P21860). Kind of assay: cross-linking.

For “full-length ERBB3 (pIND/TRE-based), recombinant and overexpressed in CHO cells (from UniProt P21860 20-1342) (receptor)”, in assay [1], the stoichiometry N is 2.

Take “soluble extracellular domains (ECD) of ERBB3, V5 and His6 epitope-tagged (from UniProt P21860 20-643) (domain or fragment)”: the stoichiometry N in assay [2] was 2.
